# According to PMC2116221:
# Biological target: taxol-stabilized microtubules (bovine brain tubulin) (bovine) (UniProt Q6B856)
# Experiment: co-sedimentation
# UniProt Q6B856, sequence (Q6B856 whole entry, looked up): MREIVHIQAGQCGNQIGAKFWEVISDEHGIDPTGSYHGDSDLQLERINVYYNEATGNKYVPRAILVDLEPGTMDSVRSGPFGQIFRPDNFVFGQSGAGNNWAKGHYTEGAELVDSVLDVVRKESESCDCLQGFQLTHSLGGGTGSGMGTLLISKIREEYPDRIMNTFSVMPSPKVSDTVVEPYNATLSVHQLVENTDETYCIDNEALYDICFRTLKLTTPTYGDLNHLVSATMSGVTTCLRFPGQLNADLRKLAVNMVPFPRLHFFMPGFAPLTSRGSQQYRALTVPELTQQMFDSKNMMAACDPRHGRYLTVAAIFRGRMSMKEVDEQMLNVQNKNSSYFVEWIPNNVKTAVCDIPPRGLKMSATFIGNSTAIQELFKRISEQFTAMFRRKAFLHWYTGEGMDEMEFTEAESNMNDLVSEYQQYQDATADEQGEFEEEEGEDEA
row,percent extracted from microtubules by 0.5 M NaCl [%],Substance
1,60,"CHO1 antigen, polypeptide of ~100 kD (HeLa cytoplasm) (from UniProt Q02241-2 1-856) (natural protein)"
2,60,"CHO1 antigen, polypeptide of ~115 kD (HeLa cytoplasm) (from UniProt Q02241 1-960) (natural protein)"
